From paper PMC4967814

Target: each of 12 IFNα subtypes and IFNω (ISRE-luciferase reporter assay, median IC50)

B1: rontalizumab, in-house-generated recombinant (antibody, INN chains, looked up, V domains shown)
VH: EVQLVESGGGLVQPGGSLRLSCATSGYTFTEYIIHWVRQAPGKGLEWVASINPDYDITNYNQRFKGRFTISLDKSKRTAYLQMNSLRAEDTAVYYCASWISDFFDYWGQGTLVTVSS
VL: DIQMTQSPSSLSASVGDRVTITCRASQSVSTSSYSYMHWYQQKPGKAPKVLISYASNLESGVPSRFSGSGSGTDFTLTISSLQPEDFATYYCQHSWGIPRTFGQGTKVEIKR
For B1, the median IC50 of inhibition of the IFN-induced ISRE-luciferase reporter response in transfected HEK293 cells was 0.0109 µg/mL.
